Measured values taken from patent US20130059806A1.

Tests used:
[1] = molecular target: biotin-FLAG-tagged TR2 and TR4 (biotin-FLAG-TR2 and biotin-FLAG-TR4 co-expressed in BirA-expressing MEL cells) (UniProt Q505F1); assay: streptavidin purification of biotin-tagged TR2/TR4 from MEL nuclear extract, mass spectrometry, experiment #1
[2] = molecular target: biotin-FLAG-tagged TR2 and TR4 (biotin-FLAG-TR2 and biotin-FLAG-TR4 co-expressed in BirA-expressing MEL cells) (UniProt Q505F1); assay: streptavidin purification of biotin-tagged TR2/TR4 from MEL nuclear extract, mass spectrometry, experiment #3
[3] = molecular target: biotin-FLAG-tagged TR2 and TR4 (biotin-FLAG-TR2 and biotin-FLAG-TR4 co-expressed in BirA-expressing MEL cells) (UniProt Q505F1); assay: streptavidin purification of biotin-tagged TR2/TR4 from MEL nuclear extract, mass spectrometry, experiment #2

biotin-FLAG-tagged TR2 and TR4 (biotin-FLAG-TR2 and biotin-FLAG-TR4 co-expressed in BirA-expressing MEL cells), sequence (Q505F1 whole entry, chain 1 of 2): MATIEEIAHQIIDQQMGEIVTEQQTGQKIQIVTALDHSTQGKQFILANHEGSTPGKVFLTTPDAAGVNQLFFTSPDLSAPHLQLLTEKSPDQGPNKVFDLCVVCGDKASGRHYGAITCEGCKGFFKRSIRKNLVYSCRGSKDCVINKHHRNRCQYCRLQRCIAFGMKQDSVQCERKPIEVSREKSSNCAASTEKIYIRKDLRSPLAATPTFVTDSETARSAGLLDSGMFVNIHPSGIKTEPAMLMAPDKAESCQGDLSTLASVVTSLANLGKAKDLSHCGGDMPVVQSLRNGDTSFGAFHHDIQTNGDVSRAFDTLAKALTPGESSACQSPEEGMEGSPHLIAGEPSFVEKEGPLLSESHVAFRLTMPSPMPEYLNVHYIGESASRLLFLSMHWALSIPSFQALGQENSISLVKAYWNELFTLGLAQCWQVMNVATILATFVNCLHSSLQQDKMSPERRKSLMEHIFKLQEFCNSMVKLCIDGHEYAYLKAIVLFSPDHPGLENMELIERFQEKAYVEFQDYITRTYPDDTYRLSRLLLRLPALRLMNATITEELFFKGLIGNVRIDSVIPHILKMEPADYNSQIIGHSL
biotin-FLAG-tagged TR2 and TR4 (biotin-FLAG-TR2 and biotin-FLAG-TR4 co-expressed in BirA-expressing MEL cells), sequence (P49117 whole entry, chain 2 of 2, further chain): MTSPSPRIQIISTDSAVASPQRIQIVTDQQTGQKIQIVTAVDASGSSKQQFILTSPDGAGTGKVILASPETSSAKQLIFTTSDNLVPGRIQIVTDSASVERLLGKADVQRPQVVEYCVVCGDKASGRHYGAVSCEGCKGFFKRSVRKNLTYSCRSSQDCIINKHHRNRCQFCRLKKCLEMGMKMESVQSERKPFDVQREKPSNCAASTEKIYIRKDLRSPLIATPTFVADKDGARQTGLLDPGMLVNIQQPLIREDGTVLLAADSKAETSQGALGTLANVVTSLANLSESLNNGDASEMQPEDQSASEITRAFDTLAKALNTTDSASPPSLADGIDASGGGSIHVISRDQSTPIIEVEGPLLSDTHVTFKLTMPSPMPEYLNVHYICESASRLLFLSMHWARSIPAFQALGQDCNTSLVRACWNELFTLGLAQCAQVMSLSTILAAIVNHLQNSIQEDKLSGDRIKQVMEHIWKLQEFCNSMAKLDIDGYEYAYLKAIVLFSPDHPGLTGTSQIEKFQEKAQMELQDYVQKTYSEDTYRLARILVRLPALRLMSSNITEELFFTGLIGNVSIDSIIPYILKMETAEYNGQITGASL

| Substance | % coverage [1] | total peptides [1] | % coverage [2] | total peptides [2] | % coverage [3] | total peptides [3] |
| --- | --- | --- | --- | --- | --- | --- |
| BRG1 (from UniProt Q3TKT4 1-1613) (enzyme) | 1.4% | 2 peptides | 0.8% | 1 peptides |  |  |
| CAPER (from UniProt Q8VH51 2-530) |  |  | 2.6% | 1 peptides | 4.9% | 2 peptides |
| DNA methyltransferase 1 (DNMT1) (from UniProt P13864 1-1620) (enzyme) | 13.5% | 35 peptides | 10.4% | 15 peptides | 10.1% | 14 peptides |
| HCF1 (Host Cell Factor 1) (from UniProt Q61191 2-2045) | 2.5% | 4 peptides | 0.8% | 1 peptides | 1.4% | 2 peptides |
| HDAC1 (from UniProt O09106 1-482) (enzyme) | 4.4% | 2 peptides | 8.9% | 3 peptides |  |  |
| HDAC2 (from UniProt P70288 1-488) (enzyme) |  |  | 4.9% | 2 peptides |  |  |
| MTA1 (from UniProt Q8K4B0 1-715) | 8.7% | 7 peptides | 1.8% | 1 peptides | 1.7% | 1 peptides |
| MTA2 (from UniProt Q9R190 1-668) | 2.8% | 2 peptides |  |  |  |  |
| Mi2β (from UniProt Q6PDQ2 1-1915) (enzyme) | 1.1% | 1 peptides | 4.4% | 6 peptides | 5.3% | 4 peptides |
| NonO (from UniProt Q99K48 1-473) | 7.8% | 10 peptides | 11% | 7 peptides | 17.8% | 9 peptides |
| PSPC1 (from UniProt Q8R326 1-523) | 3.3% | 1 peptides | 4.6% | 2 peptides | 7.8% | 3 peptides |
| RbAp46 (from UniProt Q60973 2-425) | 2% | 2 peptides |  |  | 6.8% | 3 peptides |
| RbAp48 (from UniProt Q60972 2-425) | 2% | 2 peptides | 1.9% | 1 peptides | 6.3% | 3 peptides |
| SFPQ (from UniProt Q8VIJ6 1-699) | 15.3% | 12 peptides | 18.2% | 10 peptides | 15.9% | 8 peptides |
| Sin3A (from UniProt Q60520 1-1274) |  |  | 1.1% | 1 peptides |  |  |
| transcriptional intermediary factor (TIF)-1beta (from UniProt Q62318 2-834) | 12.7% | 16 peptides | 1.8% | 1 peptides | 9% | 6 peptides |
